ß-galactosidase activity data for one substance are collected here from article PMC5604497.

The target in this experiment is leucine zipper domain of the transcription factor GCN4 from Saccharomyces cerevisiae (fusions with T18 and T25) (Saccharomyces cerevisiae). Description: two-hybrid; bacterial two-hybrid (BACTH), T18 and T25 fusions co-overexpressed in adenylate-cyclase-deficient E. coli BTH-101, LB pH 7, aerobic, OD600 ~0.6; ß-galactosidase activity (ONPG) in Miller units, three biological replicates; background with empty vectors about 400 MU.

“leucine zipper domain of the transcription factor GCN4 from Saccharomyces cerevisiae (fusions with T18 and T25) (domain or fragment)” came in with a ß-galactosidase activity of 1200 MU.
